This note sets out measurements from PMC5913336, “True equilibrium measurement of transcription factor-DNA binding affinities using automated polarization microscopy”.

Holding throughout (settings): protein: recombinant; tags: N-terminal GST; blunt, G:G mismatch at position 6
Data set [1] addresses T1, Bicoid DBD-GST (Bcd) (UniProt P09081 83-170).
T1 sequence: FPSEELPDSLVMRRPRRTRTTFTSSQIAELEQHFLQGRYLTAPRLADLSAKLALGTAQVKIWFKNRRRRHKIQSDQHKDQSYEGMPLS
Kind of data set: competitive fluorescence anisotropy (HiP-FA); mean of replicates 13.103, 12.6865; HiP-FA: 33 mM phosphate pH 7.0, 90 mM NaCl, 0.01% Tween 20, 0.1 mM DTT, 0.5% agarose; conventional titration and EMSA: 20 mM Tris-acetate pH 7.0, 50 nM (sic) NaCl, 0.01% Tween-20, 0.1 mM DTT. For orientation: In EMSA bound probe runs differently from free probe, usually more slowly.

Data set [2] deals with T1, Bicoid DBD-GST (Bcd). Kind of data set: competitive fluorescence anisotropy (HiP-FA); mean of replicates 19.276, 18.3665; HiP-FA: 33 mM phosphate pH 7.0, 90 mM NaCl, 0.01% Tween 20, 0.1 mM DTT, 0.5% agarose; conventional titration and EMSA: 20 mM Tris-acetate pH 7.0, 50 nM (sic) NaCl, 0.01% Tween-20, 0.1 mM DTT.
Data set [3] addresses T1, Bicoid DBD-GST (Bcd). Kind of data set: competitive fluorescence anisotropy (HiP-FA); mean of replicates 12.922, 12.5195; HiP-FA: 33 mM phosphate pH 7.0, 90 mM NaCl, 0.01% Tween 20, 0.1 mM DTT, 0.5% agarose; conventional titration and EMSA: 20 mM Tris-acetate pH 7.0, 50 nM (sic) NaCl, 0.01% Tween-20, 0.1 mM DTT.
The target in data set [4] is T1, Bicoid DBD-GST (Bcd). Kind of data set: competitive fluorescence anisotropy (HiP-FA); mean of replicates 14.726, 13.4865; HiP-FA: 33 mM phosphate pH 7.0, 90 mM NaCl, 0.01% Tween 20, 0.1 mM DTT, 0.5% agarose; conventional titration and EMSA: 20 mM Tris-acetate pH 7.0, 50 nM (sic) NaCl, 0.01% Tween-20, 0.1 mM DTT.
For data set [5], the target named is T1, Bicoid DBD-GST (Bcd). Kind of data set: competitive fluorescence anisotropy (HiP-FA); mean of replicates 3.19, 4.8725; HiP-FA: 33 mM phosphate pH 7.0, 90 mM NaCl, 0.01% Tween 20, 0.1 mM DTT, 0.5% agarose; conventional titration and EMSA: 20 mM Tris-acetate pH 7.0, 50 nM (sic) NaCl, 0.01% Tween-20, 0.1 mM DTT.
Data set [6] addresses T1, Bicoid DBD-GST (Bcd). Kind of data set: competitive fluorescence anisotropy (HiP-FA); mean of replicates 3.661, 3.6795; HiP-FA: 33 mM phosphate pH 7.0, 90 mM NaCl, 0.01% Tween 20, 0.1 mM DTT, 0.5% agarose; conventional titration and EMSA: 20 mM Tris-acetate pH 7.0, 50 nM (sic) NaCl, 0.01% Tween-20, 0.1 mM DTT.
Data set [7] has as its target T1, Bicoid DBD-GST (Bcd). Kind of data set: competitive fluorescence anisotropy (HiP-FA); mean of replicates 94.126, 94.115; HiP-FA: 33 mM phosphate pH 7.0, 90 mM NaCl, 0.01% Tween 20, 0.1 mM DTT, 0.5% agarose; conventional titration and EMSA: 20 mM Tris-acetate pH 7.0, 50 nM (sic) NaCl, 0.01% Tween-20, 0.1 mM DTT.
Data set [8] has as its target T1, Bicoid DBD-GST (Bcd). Kind of data set: competitive fluorescence anisotropy (HiP-FA); mean of replicates 28.134, 26.319; HiP-FA: 33 mM phosphate pH 7.0, 90 mM NaCl, 0.01% Tween 20, 0.1 mM DTT, 0.5% agarose; conventional titration and EMSA: 20 mM Tris-acetate pH 7.0, 50 nM (sic) NaCl, 0.01% Tween-20, 0.1 mM DTT.
Data set [9] deals with T1, Bicoid DBD-GST (Bcd). Kind of data set: competitive fluorescence anisotropy (HiP-FA); mean of replicates 29.656, 29.169; HiP-FA: 33 mM phosphate pH 7.0, 90 mM NaCl, 0.01% Tween 20, 0.1 mM DTT, 0.5% agarose; conventional titration and EMSA: 20 mM Tris-acetate pH 7.0, 50 nM (sic) NaCl, 0.01% Tween-20, 0.1 mM DTT.
Data set [10] deals with T1, Bicoid DBD-GST (Bcd). Kind of data set: competitive fluorescence anisotropy (HiP-FA); mean of replicates 49.725, 45.8965; HiP-FA: 33 mM phosphate pH 7.0, 90 mM NaCl, 0.01% Tween 20, 0.1 mM DTT, 0.5% agarose; conventional titration and EMSA: 20 mM Tris-acetate pH 7.0, 50 nM (sic) NaCl, 0.01% Tween-20, 0.1 mM DTT.
The target in data set [11] is T1, Bicoid DBD-GST (Bcd). Kind of data set: competitive fluorescence anisotropy (HiP-FA); mean of replicates 133.924, 123.07; HiP-FA: 33 mM phosphate pH 7.0, 90 mM NaCl, 0.01% Tween 20, 0.1 mM DTT, 0.5% agarose; conventional titration and EMSA: 20 mM Tris-acetate pH 7.0, 50 nM (sic) NaCl, 0.01% Tween-20, 0.1 mM DTT.
Data set [12] has as its target T1, Bicoid DBD-GST (Bcd). Kind of data set: competitive fluorescence anisotropy (HiP-FA); mean of replicates 92.598, 91.655; HiP-FA: 33 mM phosphate pH 7.0, 90 mM NaCl, 0.01% Tween 20, 0.1 mM DTT, 0.5% agarose; conventional titration and EMSA: 20 mM Tris-acetate pH 7.0, 50 nM (sic) NaCl, 0.01% Tween-20, 0.1 mM DTT.
Data set [13] addresses T1, Bicoid DBD-GST (Bcd). Kind of data set: competitive fluorescence anisotropy (HiP-FA); mean of replicates 45.665, 45.961; HiP-FA: 33 mM phosphate pH 7.0, 90 mM NaCl, 0.01% Tween 20, 0.1 mM DTT, 0.5% agarose; conventional titration and EMSA: 20 mM Tris-acetate pH 7.0, 50 nM (sic) NaCl, 0.01% Tween-20, 0.1 mM DTT.
Data set [14] has as its target T1, Bicoid DBD-GST (Bcd). Kind of data set: competitive fluorescence anisotropy (HiP-FA); mean of replicates 8.014, 7.5595; HiP-FA: 33 mM phosphate pH 7.0, 90 mM NaCl, 0.01% Tween 20, 0.1 mM DTT, 0.5% agarose; conventional titration and EMSA: 20 mM Tris-acetate pH 7.0, 50 nM (sic) NaCl, 0.01% Tween-20, 0.1 mM DTT.
For data set [15], the target named is T1, Bicoid DBD-GST (Bcd). Kind of data set: competitive fluorescence anisotropy (HiP-FA); mean of replicates 49.501, 48.184; HiP-FA: 33 mM phosphate pH 7.0, 90 mM NaCl, 0.01% Tween 20, 0.1 mM DTT, 0.5% agarose; conventional titration and EMSA: 20 mM Tris-acetate pH 7.0, 50 nM (sic) NaCl, 0.01% Tween-20, 0.1 mM DTT.
For data set [16], the target named is T1, Bicoid DBD-GST (Bcd). Kind of data set: competitive fluorescence anisotropy (HiP-FA); mean of replicates 2.804, 2.596; HiP-FA: 33 mM phosphate pH 7.0, 90 mM NaCl, 0.01% Tween 20, 0.1 mM DTT, 0.5% agarose; conventional titration and EMSA: 20 mM Tris-acetate pH 7.0, 50 nM (sic) NaCl, 0.01% Tween-20, 0.1 mM DTT.
The target in data set [17] is T1, Bicoid DBD-GST (Bcd). Kind of data set: competitive fluorescence anisotropy (HiP-FA); mean of replicates 143.671, 148.3805; HiP-FA: 33 mM phosphate pH 7.0, 90 mM NaCl, 0.01% Tween 20, 0.1 mM DTT, 0.5% agarose; conventional titration and EMSA: 20 mM Tris-acetate pH 7.0, 50 nM (sic) NaCl, 0.01% Tween-20, 0.1 mM DTT.
The target of data set [18] is T1, Bicoid DBD-GST (Bcd). Kind of data set: competitive fluorescence anisotropy (HiP-FA); mean of replicates 8.833, 9.124; HiP-FA: 33 mM phosphate pH 7.0, 90 mM NaCl, 0.01% Tween 20, 0.1 mM DTT, 0.5% agarose; conventional titration and EMSA: 20 mM Tris-acetate pH 7.0, 50 nM (sic) NaCl, 0.01% Tween-20, 0.1 mM DTT.
The target in data set [19] is T1, Bicoid DBD-GST (Bcd). Kind of data set: competitive fluorescence anisotropy (HiP-FA); mean of replicates 63.883, 64.716; HiP-FA: 33 mM phosphate pH 7.0, 90 mM NaCl, 0.01% Tween 20, 0.1 mM DTT, 0.5% agarose; conventional titration and EMSA: 20 mM Tris-acetate pH 7.0, 50 nM (sic) NaCl, 0.01% Tween-20, 0.1 mM DTT.

B1: Bcd competitor 12 (T4A) (dsDNA)
DNA 1: TCGACGGAAATCCCTA
DNA 2: TAGGGATTTCGGTCGA
What is called Kd is the constant that tells how readily two partners part at equilibrium. For B1, in the data set with Bicoid DBD-GST (Bcd) [1], the Kd stood at 12.9 nM.

B2: Bcd competitor 20 (T7G) (dsDNA)
DNA 1: TCGACGGTAAGCCCTA
DNA 2: TAGGGCTTACGGTCGA
On to B2, for which, in the data set with Bicoid DBD-GST (Bcd) [2], the Kd was 18.8 nM.

B3: Bcd competitor 27 (C9A) (dsDNA)
DNA 1: TCGACGGTAATCACTA
DNA 2: TAGTGATTACGGTCGA
Consider B3, for which the Kd with Bicoid DBD-GST (Bcd) [3] worked out at 12.7 nM.

B4: Bcd competitor 25 (C9G) (dsDNA)
DNA 1: TCGACGGTAATCGCTA
DNA 2: TAGCGATTACGGTCGA
For the molecule B4, the Kd with Bicoid DBD-GST (Bcd) [4] stood at 14.1 nM.

B5: Bcd competitor 29 (C10T) (dsDNA)
DNA 1: TCGACGGTAATCCTTA
DNA 2: TAAGGATTACGGTCGA
Turning to B5, the Kd with Bicoid DBD-GST (Bcd) [5] came to 4.03 nM.

B6: Bcd competitor 28 (C10G) (dsDNA)
DNA 1: TCGACGGTAATCCGTA
DNA 2: TACGGATTACGGTCGA
With B6, the Kd with Bicoid DBD-GST (Bcd) [6] was determined as 3.67 nM.

B7: Bcd competitor 19 (T7C) (dsDNA)
DNA 1: TCGACGGTAACCCCTA
DNA 2: TAGGGGTTACGGTCGA
Take B7: the Kd in the data set with Bicoid DBD-GST (Bcd) [7] worked out at 94.1 nM.

B8: Bcd competitor 23 (C8T) (dsDNA)
DNA 1: TCGACGGTAATTCCTA
DNA 2: TAGGAATTACGGTCGA
For B8, in the data set with Bicoid DBD-GST (Bcd) [8], the dissociation constant (Kd) is 27.2 nM.

B9: Bcd competitor 15 (A5T) (dsDNA)
DNA 1: TCGACGGTTATCCCTA
DNA 2: TAGGGATAACGGTCGA
With B9, the Kd in the data set with Bicoid DBD-GST (Bcd) [9] was 29.4 nM.

B10: Bcd competitor 24 (C8A) (dsDNA)
DNA 1: TCGACGGTAATACCTA
DNA 2: TAGGTATTACGGTCGA
Consider B10, for which, in the data set with Bicoid DBD-GST (Bcd) [10], the Kd is 47.8 nM.

B11: Bcd competitor 18 (A6T) (dsDNA)
DNA 1: TCGACGGTATTCCCTA
DNA 2: TAGGGAATACGGTCGA
B11: the Kd with Bicoid DBD-GST (Bcd) [11] turned out to be 128 nM.

B12: Bcd competitor 22 (C8G) (dsDNA)
DNA 1: TCGACGGTAATGCCTA
DNA 2: TAGGCATTACGGTCGA
Turning to B12, the Kd in the data set with Bicoid DBD-GST (Bcd) [12] was 92.1 nM.

B13: Bcd competitor 17 (A6G) (dsDNA)
DNA 1: TCGACGGTAGTCCCTA
DNA 2: TAGGGACTACGGTCGA
Turning to B13, the Kd in the data set with Bicoid DBD-GST (Bcd) [13] was found to be 45.8 nM.

B14: Bcd competitor 26 (C9T) (dsDNA)
DNA 1: TCGACGGTAATCTCTA
DNA 2: TAGAGATTACGGTCGA
Turning to B14, in the data set with Bicoid DBD-GST (Bcd) [14], the Kd was 7.79 nM.

B15: Bcd competitor 21 (T7A) (dsDNA)
DNA 1: TCGACGGTAAACCCTA
DNA 2: TAGGGTTTACGGTCGA
As for B15, in the data set with Bicoid DBD-GST (Bcd) [15], the Kd stood at 48.8 nM.

B16: Bcd competitor 1 (C1G) (dsDNA)
DNA 1: TCGAGGGTAATCCCTA
DNA 2: TAGGGATTACGCTCGA
As to B16, in the data set with Bicoid DBD-GST (Bcd) [16], the Kd is 2.7 nM.

B17: Bcd competitor 16 (A6C) (dsDNA)
DNA 1: TCGACGGTACTCCCTA
DNA 2: TAGGGAGTACGGTCGA
Turning to B17, in the data set with Bicoid DBD-GST (Bcd) [17], the dissociation constant Kd was 146 nM.

B18: Bcd competitor 14 (A5G) (dsDNA)
DNA 1: TCGACGGTGATCCCTA
DNA 2: TAGGGATCACGGTCGA
As for B18, in the data set with Bicoid DBD-GST (Bcd) [18], the Kd worked out at 8.98 nM.

B19: Bcd competitor 13 (A5C) (dsDNA)
DNA 1: TCGACGGTCATCCCTA
DNA 2: TAGGGATGACGGTCGA
For B19, the Kd with Bicoid DBD-GST (Bcd) [19] was determined as 64.3 nM.
